The record followed here is the nanobody polyreactivity screen of Harvey et al. (2022).

The data set is described as follows: yeast display, Sf9 membrane polyspecificity reagent, FACS + sequencing; frameworks hold sequencing errors. Summed up:
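Nanobodies came from a synthetic yeast display library in Saccharomyces cerevisiae BJ5465, induced with galactose for 36–48 hours and stained for 1 hour at 4 °C with 10% biotinylated, detergent-solubilized Sf9 membrane reagent. Cells were enriched on streptavidin microbeads and then FACS-sorted, with low and high (top ~1%) gates set on anti-HA fluorescence for expression and streptavidin fluorescence for reagent binding. Each polyreactivity label reflects the gate a clone came from. Genes were amplified by colony PCR, sequenced by MiSeq 2 × 250 and filtered by CDR length.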
“QVQLVESGAGLVQAGGSLRLSCAASGRTFKTYAMAWYRQAPGKERELVAAISRDGRTYYADSVKGRFTISRDNAKNTVYLQMNSLKPEDTAVYYCAKDASVWPWWGYRGDYWGQGTQVTVSS”: the “polyreactivity (PSR sort gate)” value is “low polyreactivity”.

Take “QVQLVESGAGLVQAGGSLRLSCAASGSIFGSYAMGRDRQAPGKERELVAGITYRGSSTYYAESVKGRFTISRDNAKNTVYLQMNSLKPEATAVYYCAADPVFDEYDYWGQGTQVTVSS”: the “polyreactivity (PSR sort gate)” value is recorded as “low polyreactivity”.

Take “QVQLVESGAGLVQAGGSLRLSCAASGSIFWAYAMGWYRQAPGKERELVAAISRGGTTTYADSVKGRFTISRDNAKYTVYLQMNSLKPEDTAVYYCARQGTIYSYDIVYPRLDYWGQGTQVTVSS”: the “polyreactivity (PSR sort gate)” value is reported as “low polyreactivity”.

Turning to “QVQLVESGAGLVQAGGSLRLSCAASGSTFDGNVMGWYRQEPGKESELVAAISGGGSTNYADSVKGRFTISRDNAKNTVYLQMNSLKPEDTAVYYCATQYWHFPYWQYKYDYWGQGTQVTVSS”, the “polyreactivity (PSR sort gate)” value was “low polyreactivity”.

On to “QVQLVESGAGLVQAGGSLRLSCAASGSTFGKYAMGWYTQAPGKEMELVARIDSGDGTYYADSVKGRFTISRDNAKNTVYLQMNSLKPEDTAVYYCAARYGARRLTYFWPQYARYDYWGQGTKVTVSS”, for which the “polyreactivity (PSR sort gate)” value is “high polyreactivity”.

On to “QVQLVESGAGLVQAGGSLRLSCAASGSTFGSYTMGWYRQAPGKERELVAAINWSGGNTYYADSVKGRFTISRDTAKNTVYLQMNSLKPEDTAVYYCAAAFYIYGVEGDYWGQGTQVTVSS”, for which the “polyreactivity (PSR sort gate)” value was “low polyreactivity”.

In the case of “QVQLVESGAGLVQAGGSLRLSCAASGSTFKRYAMGWYRQAPGKERELVAAITWRGGSTYYADSVKGRFTISRDNAKNTVYLQMNSLKPEDTAVYYSATDYVYRYDYWGQGTQVTVSS”, the “polyreactivity (PSR sort gate)” value was “high polyreactivity”.

For the sequence “QVQLVESGAGLVQAGGSLRLSCAASGSTFTLNAMGWYRQAPGKERELVADISWSSGRTYYADSVKGRFTISRDNAKNTVDLQMNSLNPEDTAVYYCATDDFWIVKFYAYYPEFDYWGQVTQVTVSS”, the “polyreactivity (PSR sort gate)” value is recorded as “low polyreactivity”.

“QVQLVESGAGLVQAGGSLRLSCAASGYTFSKNTMGWYRQAPGKERELVAAISRSGGSTYYADSVKGRFTISRDNAKNTFYLQMNSLKPEDTAVYYSAKRVSTYGFSGYDYWGQGTQVTVSS”: the “polyreactivity (PSR sort gate)” value is on record as “high polyreactivity”.

With “QVQLVESGAGLVQAGGSLRLSCAGSGLTFRGNAMGCYRQAPGKERELVAAISWSDDTTDYADSVKGRFTISRDNAKNTVYLQMNSLKPEDTAVYYCAARRRIYRSMGFWGQGSQVTVSS”, the “polyreactivity (PSR sort gate)” value is “low polyreactivity”.

Regarding “QVQLVESGAGLVQAGGSLRLSCAPSGIIFYWNTMAWYRQAPGKERELVAAISSRSGSTYYADSVKGRFTISRDNAKNTVYLQMISLKPEDTAVFYCAARYGYRYADKGTDYGYWGQGTQVTVSS”, the “polyreactivity (PSR sort gate)” value is recorded as “high polyreactivity”.

As to “QVQLVESGAGLVQAGGSLRLSCAPSGRIFYYAMGWYRQAPGKERELVAAISSGGSTNYADSVKGRFTISRDNSKNSVYLQMNSLKPEDTAVYYCAADRYWRWPRRDYWGQGTQVTVSS”, the “polyreactivity (PSR sort gate)” value is reported as “low polyreactivity”.

As for “QVQLVESGAGLVQAGGSLRLSCAPSGSTFEDYAMGWYRQAPGKERELVAAISHIGGSTYYADSVKGRFTISRDNAKNTVYLQMNSLKPEDTAVYYCAKGGFSSKFDYWGQGTQVTVSS”, the “polyreactivity (PSR sort gate)” value is reported as “low polyreactivity”.

Take “QVQLVESGAGLVQAGGSLRLSCASSGTIFWGYAMGWYRQAPGKERELVAAITDSGGRTYYADSVKGRFTISRDNAKNTVYLQMNCLKPEDTAVYYCAADYYSQYYYYAVPDRDYWGQGTQVTVSS”: the “polyreactivity (PSR sort gate)” value is “low polyreactivity”.

In the case of “QVQLVESGAGLVQAGGSLRLSSAASGLTFQTYAMGCYRQAPGKEREYVATISNGSSTYYADSVKGRFTISRDNAKNTVYFQMNILKPEDTAVYYCAKDYYYSRNQLYGHDYWGQGPQVTVSS”, the “polyreactivity (PSR sort gate)” value is “low polyreactivity”.

Consider “QVQLVESGAGLVQAGGSLRLTCAASGSNFYYYAMGWYRQAPGKERELVAAINGGDTYYADSVKGRFTISRDNAKNTVYLQMNSLKPEDTAVFYCAAEGVTVEWDYDYWGQGTQVTVSS”, for which the “polyreactivity (PSR sort gate)” value is “low polyreactivity”.

For the sequence “QVQLVESGAGLVQAGGSLRLTCAPSGSIFNIYSMGWYRQAPGKDRELVATITGIADSTYYADSVKGRFTISRDNANNTVYLQMNILKPEDTAFYYCAADIYVAEYDYWGQGTQVTVSS”, the “polyreactivity (PSR sort gate)” value is reported as “low polyreactivity”.

For the sequence “QVQLVESGAGLVQAGGSLSLSCAASGRTIVTNAMGWYRQAPGKERELVAAINGRGDNTYYADSVKGRFTISRDNAKNTFYLQMNSLKPEDTAVYYCAVRRGYHSHTKYYYWGLGTQVTVSS”, the “polyreactivity (PSR sort gate)” value was “high polyreactivity”.

Consider “QVQLVESGAGLVQEVGSLRLSCAASGFTFGVNAMGSSRQAPGKERQFVASIRVRGCSTYYADSEKGRFTISRDNAKNTVYLQMNSLKPEDTAVYFCNAEVYVSSYATEMDYWGQGTQVTVSS”, for which the “polyreactivity (PSR sort gate)” value is on record as “low polyreactivity”.

As for “QVQLVESGARLVQAGGSLRLSCAASAYTLVGYAMGWYRQEPGKERELVADINFSGGRTYYADSVKGRFTISRDNAKNNVYLQMNSLKPEDTAVYYCNAAGALSWFYYGYDYWGQGTQVTLSS”, the “polyreactivity (PSR sort gate)” value is on record as “low polyreactivity”.

On to “QVQLVESGARLVQAGGSLRLSCDASGITFFAYAIGWYRQAQGKERELVAAISCNTGRTYYADSVKGRFTISRDNAKITVYLQMNSLKPEDTAVYYCAKRGVGVGYNYWGQGTQVTVSS”, for which the “polyreactivity (PSR sort gate)” value was “high polyreactivity”.

For the sequence “QVQLVESGEGLVQAGGSLRLICAASGRNFYSNAMVWYRQAPGKERELVAAMSYSGGSTYYADSVKGRFTISRDNAKNTVYLQMNSLKPEDTAVYYCAADTTYWPYWGTYVVYDYWGQGTQVTVSS”, the “polyreactivity (PSR sort gate)” value is “low polyreactivity”.

Take “QVQLVESGEGLVQAGGSLRLSCAASRRIFEYYFMGWYSQAPGKERELVAAMNRRGTSTYYADSVKGRFTISRDNAKNTVYLQMNSLKPEDTAVYYCAAVDRDYARTTTYDYWGQGTEVTVSS”: the “polyreactivity (PSR sort gate)” value is recorded as “high polyreactivity”.

Consider “QVQLVESGGALGQAGGSLRLTSAASGITFPRYAIGWYRHAPGKEREMVATITRSGGGTYYADSVKGRFKISRDNAKNTVYLQMNSLKPEDTSVFYCAAGALQRGVYGYGFWGQGTQVTVSS”, for which the “polyreactivity (PSR sort gate)” value is on record as “high polyreactivity”.

For the sequence “QVQLVESGGALLQAGGSLRLSCAASGRTFGYNAMGWYRQAPGKEREMVAAITYSGGRTSYADSVKGRFTISRDNAKNTVYLQMNSLKPEDTAVYYCAAQTRYYSGYNYWGQATQVTVSS”, the “polyreactivity (PSR sort gate)” value is listed as “high polyreactivity”.

As for “QVQLVESGGALVHAGGSLRLSCAASGSTFSGYDMVWYRQAPGKERELVAAISTYYADSVKGRFTISRDNAKTTVFLQMYCLKPEDRAVYYCAKPWGRYDYLGQGTQVTVSS”, the “polyreactivity (PSR sort gate)” value is reported as “low polyreactivity”.

Regarding “QVQLVESGGALVQAGGSLRLICAASGRIFQRYTKGWYRQAPGKERELVAAITYSGGRTYYADSVKGRFTISRDNAKNTVYLQMNSLKPEDTAVYYCYAAYFNWYTHVWNDYWGQGTQVTVSS”, the “polyreactivity (PSR sort gate)” value is “high polyreactivity”.

With “QVQLVESGGALVQAGGSLRLICAASGSIFGYNAMGWYRPSPGKEREFVASIRDRGGSTYYADSVKGRFTISRDNAKNTLYFQMKSLKQEDTAVYYGDAYWWGVSKRQYGYWGQGTQVTVSS”, the “polyreactivity (PSR sort gate)” value is reported as “high polyreactivity”.

Take “QVQLVESGGALVQAGGSLRLICAASGSILYAYAMGWYRQAPGKERELVATNSYRGDRTRYADSVKGRFTISRDNAKNTVYLQMNSLKPEDTAVYSCAAKRKTSVPPVVKWSGYWGQGTQVTVSS”: the “polyreactivity (PSR sort gate)” value was “high polyreactivity”.

In the case of “QVQLVESGGALVQAGGSLRLSCAASGFTFIPNAMGWYRQAPGKERELVAAIYSSGGTTYYADSVKGRFTISRDTAKNTVYLQMNSLKTEDTAVYYCARRVYGYYIPYNYWGQATQVTVSS”, the “polyreactivity (PSR sort gate)” value was “high polyreactivity”.

On to “QVQLVESGGALVQAGGSLRLSCAASGIIFGRNGMGWYRQAPGKERELVAAISRGGGSTYYADSVKGRFTISRDNAKNTVYLQMNSLKPEDTAVYYCARRPTGIYDYWGQVTQVTVSS”, for which the “polyreactivity (PSR sort gate)” value was “high polyreactivity”.

As to “QVQLVESGGALVQAGGSLRLSCAASGITFARNAMGWYRQAPGKERELVAVISTRGGRTYYADSVKGRFTISRDNAKNTVYLQMNSLKPEDTAVYYCAASPDPYWRRMDYWGQGTQVTVSS”, the “polyreactivity (PSR sort gate)” value is listed as “high polyreactivity”.

On to “QVQLVESGGALVQAGGSLRLSCAASGLTFTDYAMGWYRPAPGQERELVAGIWDGGSTYYADSVKGRFTISRDNAKNTVYLQMNSLKPEDTAVYYCAAEDWWTSFPEYYYWGQGTQVTVSS”, for which the “polyreactivity (PSR sort gate)” value is “high polyreactivity”.

As for “QVQLVESGGALVQAGGSLRLSCAASGRIFGVNAMGWYRQAPGKERELVAAITSRGGSTYYADSVKGRFTISRDNAKNTVYLQMHSLTPEDTEVYYCRGWRYFTDKTYDYWGQGTQVTVSS”, the “polyreactivity (PSR sort gate)” value is on record as “high polyreactivity”.

With “QVQLVESGGALVQAGGSLRLSCAASGRIFGYYAMGWYRQAPGKERELVAAITVSGTSTYYADSVKGRFTISRDNAKNTVYLQMNSLKPEDTAVYYCAARPRRRYYGYDSWGQGTQVTVSS”, the “polyreactivity (PSR sort gate)” value is listed as “high polyreactivity”.

Regarding “QVQLVESGGALVQAGGSLRLSCAASGRIFIVYAMRWYRQAPGKERELVASITSGASTNYADSVKGRFTISRDNAKNTVYLQMNSLKPEDTAVYDCNADGPGAYLSEFGYWGQGTQVTVSS”, the “polyreactivity (PSR sort gate)” value is given as “low polyreactivity”.

On to “QVQLVESGGALVQAGGSLRLSCAASGRIFSRYVIRWYRQAPGKERELVAAISWNGGSTYYADSVKGRFRISRDNAKNTVYLQMNSLKPEDTAVYYCAARVRVTGTYYTKFDYWGQGTQVTVSS”, for which the “polyreactivity (PSR sort gate)” value is listed as “high polyreactivity”.

For “QVQLVESGGALVQAGGSLRLSCAASGRIFSSYAMGWYRQEPGKERELVAAISRSGARTYYADSVKGRFTISRDNAKYSVYLQMNSLIAEDSAVSYCAAVTVSCYDYWGQGTQVTVSS”, the “polyreactivity (PSR sort gate)” value is on record as “high polyreactivity”.

Take “QVQLVESGGALVQAGGSLRLSCAASGRTFGHNAMGCSRQAPGKEREFVAAITYSGVRTFYADSVKGRFTISRDNAQNTVYLQMNSLKPEDTAVYYCATDWRRDYDYWGQGTQVTVSS”: the “polyreactivity (PSR sort gate)” value is on record as “low polyreactivity”.

Take “QVQLVESGGALVQAGGSLRLSCAASGRTFGVYAMGWYRQAPGKERELVAAISRRAGNTYYADSVKGRFTISRDNAKNTVYLQMNSLKTEDTAVYYCAADFSRQYGYWGQGTQVTVSS”: the “polyreactivity (PSR sort gate)” value is recorded as “high polyreactivity”.

On to “QVQLVESGGALVQAGGSLRLSCAASGSIFDHNAMGWYRQAPGKERELVAAITWSGTSTYYADSVKGRFTISRDNAKNTVYLQMNSLIPEETAVYYCAAYLYGAVRAYPYRWGRYNYWGQGTQVTVSS”, for which the “polyreactivity (PSR sort gate)” value is recorded as “high polyreactivity”.
